# Data from PMC7261735.
# Key:
# Experiment in all cases: SPR; Biacore T200; recombinant human TNFα immobilized on a CM5 chip, antibody captured through binding to TNFα; association and dissociation globally fit to a 1:1 binding model; average of 3 intra-assay replicates per lot
# ABP 710 = biological target: ABP 710
# infliximab (US) = biological target: infliximab (US)
# infliximab (EU) = biological target: infliximab (EU)
Substance,Kd (ABP 710) [nM],Kd (infliximab (US)) [nM],Kd (infliximab (EU)) [nM]
FcγRIIIa (158V),68 to 80,,
FcγRIIIa (158V) (receptor),,63 to 93,59 to 89
